Test: soluble on expression in E. coli; label from the status in PepcDB or PDB records

Row | Sequence | soluble on expression in E. coli
1 | MIQGVIQKIAGPAVIAKGMLGARMYDICKVGEEGLVGEIIRLDGDTAFVQVYEDTSGLKVGEPVVSTGLPLAVELGPGMLNGIYDGIQRPLERIREKTGIYITRGVVVHALDREKKWAWTPMVKPGDEVRGGMVLGTVPEFGFTHKILVPPDVRGRVKEVKPAGEYTVEKPVVVLEDGTNLKMYHTWPVRRPRPVQRKLDPNTPFLTGMRILDVLFPVAMGGTAAIPGPFGSGKTVTQQSLAKWSNADVVVYVACGDRGNEMTDVLVEFPELTDPKTGGPLMRRTVLIANTSNMPVAAREASIYVGVTIAEYFRDQGFSVALMADSTSRWAEALREISSRLEEMPAEEGYPPYLAARLAAFYERAGKVITLGGEEGAVTIVGAVSPPGGDMSEPVTQSTLRIVGAFWRLDASLAFRRHFPAINWNGSYSLFTSALDPWYRENVAEDYPELRDAISELLQREAGLQEIVQLVGPDALQDAERLVIEVGRIIREDFLQQNAYHEVDAYCSMKKAYGIMKMILAFYKEAEAAIKRGVSIDEILQLPVLERIGRARYVSEEEFPAYFEEAMKEIQGAFKALA | soluble
2 | MIQQAQFNVQMAEEDRWLTQYPNMEMIVNNKGPKPIFPELNFNITGLEEKSRYVVLLSIQKFDNIRYGFKNGKWGPSKVRHATKKEQEIKYFLHPDGTKLGEELMKETIKFDTVRITNHKKFMDKDNVFFVETMHKYVPVLTVKNITNVESANHSMRMEVAQFFPVTVYNQESIGNWKSKFHKNATFENRLDGGNKRKNTNSREEPSSKRSKNETEIAVLDILQVASQSENYNESTNSGRLQNEISSSIHQFPSTSYQNQYPHAYPTVNTPPIYAQQFPAPFDEKQNQFYPKTDENLAPNCAQDASSLPNFAMNQKASFANQYPYHPYYHQYSQLDHGSPYQYMNNSINSDSSFQSSFSTENSYFDDNGNPIHYPYYPYK | not soluble
3 | MIRIAYVSTYPPRRCGLATFTEHLRQSIDGVRGPSDGDRVIVLYNESDGDDAYRNDPAYWPLPAQNRAAYAEMAKRVNESDIDVVLLQHEFGIFGGEAGEYILDFIAALNKPLVTTFHTVFADPPLPYRPIQGKIAAASDAIIVMNRQAIPYLVKAFGLPEEKIVYIPHGAPGPSSENRDSLRRRLGFSGRKVMLTFGLLSRGKGIESVLAALPGVVRKVPEALYVIAGQTHPEVKKREGEAYREELKSLIHRLGLEHHVHMEDRYFSEEELIDYLTACDLYVTPYPGMQQITSGTLAYAVGVGRPVVSTPYEHARDLLRGCEELLLPYGDTTAWEERLGQLLADEAALKRWEEKVRQIGANTHWPRVGEQHVALFARMCAAKRGEVKTIGTVSH | not soluble
4 | MIRIENLTKKFDRKVLDNITISLPKNRVSVIVGINGSGKTTLLDCIVGLKDATSGKVFIESYSNDSEKFKECIFYIPSEFYLPNYMTGKEYLNFVLSRYRCSDIERIDDFLELFDLKFAGTNLIESYSFGMKKKIQIVAAALANTDYILGDEIFNGLDFETTLLTLELFENLSREVGIVIISHNKLIIERFSENILLMSNGNLTPFLGASENLEKEVISTEKIHEKIKYIKGYHPINRVIY | not soluble
5 | MIRLAPLITADVDTTTLPGGKASDAAQDFLTLLSEALAGETTTDKAAPQLLVATDKPTTKGEPLVSDILADAQQADLLIPVDETLPVINDEQSTSTPLTTAQTMTLAAVADKNTTKDEKADDLNEDVTASLSALFAMLPGFDNTPKVTDAPSTVLPAEKPTLFTKLTSAQLTTAQPDDAPGTPAQPLTPLVAEAQSKAEVISTPSPVTADASPLITPHQTQPLPTVAAPVLSAPLGSHEWQQSLSQHISLFTRQGQQSAELRLHPQDLGEVQISLKVDDNQAQIQMISPHQHVRAALEAALPVLRTQLAESGIQLGQSNISGESFSGQQQAASQQQQSQRTANHEPLAGEDDDTLPVPVSLQGRVTGNSGVDIFA | not soluble
6 | MIRSMTGFGRGRAQADGREFLVEIKTVNHRYCDIYIKLPRQISFLEDKVREVIGKSISRGKVDVFINYEDFSEDSKNILIDEGLAKTYIKSVEYLRDKYGLKDDISVSLIAKFPDILKVEKPEEDEEKIWNLLYEALSHALDSLISMRETEGEGLKNDLLERTDAIEKVVQEISIRAPEVVKEYKCKLENRIKEILEQQVIDENRLAMEVAIFADRCNIDEELVRLESHINQLRQTLNSDSDTPVGRKLDFLIQEMNREINTIGSKANDLSITQNVVEIKSELEKIREQIQNIE | soluble
7 | MISAKEQAKKGQIIYRYILLKIQSFKWPAGTRIFSERQLEIRFASSRSLIRTILNTLLGKDLIRHTKGNAGYFVAKNAGFSFFHKTQDNKLPKWAKLSTLMKNHLREVDRDVFSSIDSGVDFGNFKGLEAKLFDENKKNFLNLSFFGKDDVLQIFSEQNLQEQFFKDFAYNGIVVERKSSLICVDDETKNLLIYDLFYDDNNKFIVAMRSEYLNPRIKIINA | soluble
8 | MISIIIPAFNEERRIGRTLEKISSTLPNAEIVVVFDGHDNTPEVVKKFPVKLLISESRLGKGGAIKRGINESNFQRVLLLDADFPITEEELDKILSTDADLVIPKRKIVGMPLKRKFLHKGFIIITKILFPSLAKFSDFQAGVKLVNREKVLDILDELIINDFLFDVNLIYGFKRRHYKVKEVEINYIHDESDSKISKKLIKVIILMFLSLIKLRVYYSPFRKILYTKTYLKAQDYILRKLRLEHHHHHH | not soluble
9 | MISIIYLFIPILLASAVPTSDVLSTRIKALEQVFIVFYCKPSCRFNETQLNSVTIKSFPKCKEVCGIIFIDSETDLTVEQMKKAFEKMRTLKGGFNIENTSLTSLSVFTADKEKGNFNVVGVGNSAAAMTSTKLLAERLKQKNGVYIRNNSQLNDPSVLYDLYLYRDRGIEACDIRIENNPKLEFSCDGGFLHMYNELIVRGNLKDCGCDGEKVNVSNVKEYSKCKTLDSGLNLVNINATFDYDSFLNVTMIRGSIAIRNTNLQSLSFLQNLQTIEYNSDIASVALNVQDNPEMIRLGLPILTKVIDTVEQTSMIQYSTYNKRQYFNFENLHPDFCVTITEIVALLNLGISTENIEAKLCKDPGPLDASFYCTFESMSKLSDTCMYILGDLLIDHEDEKYVSKLGVLQFLFGTLTIRNTNLTDLNFLDQMTYIGALNGNVTYFPVIQIYSNPNLRNVGLNGIMNIITKGNRTAIIQDNHPDLFKSTPCQLFGAYFSNPAMENRVNLTYIGSNCGERVHITSSQSGRISIGLSFSLFVLFWSFKSN | not soluble
10 | MISNDAIRRNMAVFSMSVVSKLTDLTPRQIRYYETHELIKPERTEGQKRLFSLNDLERLLEIKSLLEKGFNIKGIKQIIYDSQEHLTTDEQEIRKKMIVDATQKPIGETLPINRGDLSRFIK | not soluble
11 | MISNFKSISLTYRKAPLEIRERVALNEAECKSLMLRIKDFTDTAELLILSTCNRTEIYYTSNEDYSNDIIKLLGVEKNITGLIQQKEYFEIYNEQADAVLHLFEVGIGLDSQVVGDMQIVNQVKYAYQWSADLNLAGPFLHRLMHTIFFTNKRVVQETAFRDGAASVSYATVELSEELLSATPNANILIVGLGEIGADVCRNFKANTSFKNITLTNRSPLKSEALAAECGIEHVPFETLWEAVAKADLVISSVAKEEPLFTKEEIQKLSILSHKYFIDLSVPRSVDARAEELPGIIVYDIDHIQNRSNEALENRLNAIPHVRKIILDSIVEFNEWSKEMEVSPTINKLKNALEQIRKEELSRFVKQLSDEEAKKVDEITKSIMQKIIKLPVLQLKAACKRGEAETLIDVLNDLFNLDKQPEQIRD | not soluble
12 | MISPNHLILLFCVNCAFLVASDATPKRSPLGTMRFGKRAIADEMTFEEDGYYPSNVMWKRSTVDSSEPVIRDQRTPLGTMRFGKRSAEPFGTMRFGKRNPENDTPFGTMRFGKRASEDALFGTMRFGKREDGNAPFGTMKFGKREAEEPLGTMRFGKRSADDSAPFGTMRFGKRNPLGTMRFGK | not soluble
13 | MITLEQKLEQYKHTYVQLKGELKWKTSDSRTGMMIAAMYAGSDKLFDLGRFLEISSYIKNQVGMFSYLKSYHRFVVAATLDIHFTDYKEAFRKFLDLYEQLVTGGFSRSIFTYLAAAVLLTEENEQHGAHIQRSMQVYKRMKKDHLFLTSTNDYPLAVLLAGQSEHVETLMDRVERLYQKLATAGLRKGNDLQFLSHILSLKKDVREELLVAKCTNIWNLLKQEKVKVKQMHYPAIGLLALLEDGEKEIHSIRAFIEKLQGDKLFRWHTDTNILIAIQLFVSQKGEESKATNTGLQTMIEVLIQAQQAAMMATIAASSAATSSASSSS | not soluble
14 | MITLREFKEENTAQLTHILNEPEVVKYLSSKIPKPDTLQDAQWWISTGSKFGIVKAIECNGSLIGCIGADRGEFEYQRSAEIGYWIAKDYWRQGVATQAISELIPLIFTTTDIVRLFASVFSENTASMRVLDKCGLKLEAIHKKAIYKDGKFYDNHIFSILKT | not soluble

Source: the DeepSol protein solubility set
